Experiments:
[1] = molecular target: ACE2_Fc (microarray spots) (UniProt Q9BYF1); assay: CDI SARS-CoV-2 protein microarray, sample [..]00347 1 ug/mL, positive-control spot ACE2_Fc_0.17 read by the anti-human IgG secondary, replicate 2
[2] = molecular target: Human IgG (microarray spot); assay: CDI SARS-CoV-2 protein microarray, sample [..]00347 1 ug/mL, positive-control spot Human IgG read by the anti-human IgG secondary, replicate 1
[3] = molecular target: ACE2_Fc (microarray spots) (UniProt Q9BYF1); assay: CDI SARS-CoV-2 protein microarray, sample [..]00316 1 ug/mL, positive-control spot ACE2_Fc_0.5 read by the anti-human IgG secondary, replicate 1
[4] = molecular target: Human IgG (microarray spot); assay: CDI SARS-CoV-2 protein microarray, sample [..]00347 1 ug/mL, positive-control spot Human IgG read by the anti-human IgG secondary, replicate 2
[5] = molecular target: Human IgG (microarray spot); assay: CDI SARS-CoV-2 protein microarray, sample [..]00316 1 ug/mL, positive-control spot Human IgG read by the anti-human IgG secondary, replicate 2
[6] = molecular target: ACE2_Fc (microarray spots) (UniProt Q9BYF1); assay: CDI SARS-CoV-2 protein microarray, sample [..]00347 1 ug/mL, positive-control spot ACE2_Fc_0.5 read by the anti-human IgG secondary, replicate 1
[7] = molecular target: ACE2_Fc (microarray spots) (UniProt Q9BYF1); assay: CDI SARS-CoV-2 protein microarray, sample [..]00316 1 ug/mL, positive-control spot ACE2_Fc_0.17 read by the anti-human IgG secondary, replicate 1
[8] = molecular target: ACE2_Fc (microarray spots) (UniProt Q9BYF1); assay: CDI SARS-CoV-2 protein microarray, sample [..]00316 1 ug/mL, positive-control spot ACE2_Fc_0.17 read by the anti-human IgG secondary, replicate 2
[9] = molecular target: Human IgG (microarray spot); assay: CDI SARS-CoV-2 protein microarray, sample [..]00316 1 ug/mL, positive-control spot Human IgG read by the anti-human IgG secondary, replicate 1
[10] = molecular target: ACE2_Fc (microarray spots) (UniProt Q9BYF1); assay: CDI SARS-CoV-2 protein microarray, sample [..]00316 1 ug/mL, positive-control spot ACE2_Fc_0.5 read by the anti-human IgG secondary, replicate 2
[11] = molecular target: ACE2_Fc (microarray spots) (UniProt Q9BYF1); assay: CDI SARS-CoV-2 protein microarray, sample [..]00347 1 ug/mL, positive-control spot ACE2_Fc_0.5 read by the anti-human IgG secondary, replicate 2
[12] = molecular target: ACE2_Fc (microarray spots) (UniProt Q9BYF1); assay: CDI SARS-CoV-2 protein microarray, sample [..]00347 1 ug/mL, positive-control spot ACE2_Fc_0.17 read by the anti-human IgG secondary, replicate 1
S1 (SARS-CoV-2) [13] = molecular target: S1 (SARS-CoV-2) (UniProt P0DTC2); assay: protein/peptide microarray, Anti-Hu IgG control alone, replicate 1, spot S1_0.5
Human IgG (human) [14] = assay: protein/peptide microarray, Anti-Hu IgG control alone, replicate 2, spot Human IgG
Human IgG (human) [15] = assay: protein/peptide microarray, Anti-Hu IgG control alone, replicate 1, spot Human IgG
ACE2_Fc [16] = molecular target: ACE2_Fc (UniProt Q9BYF1); assay: protein/peptide microarray, sample [..]00761 10 ug/mL, replicate 2, positive-control spot ACE2_Fc_0.17 (signal of the anti-human IgG detection)
S1 (SARS-CoV-2) [17] = molecular target: S1 (SARS-CoV-2) (UniProt P0DTC2); assay: protein/peptide microarray, Anti-Hu IgG control alone, replicate 2, spot S1_0.5
S1 (SARS-CoV-2) [18] = molecular target: S1 (SARS-CoV-2) (UniProt P0DTC2); assay: protein/peptide microarray, Anti-Hu IgG control alone, replicate 1, spot S1_0.17
S1 (SARS-CoV-2) [19] = molecular target: S1 (SARS-CoV-2) (UniProt P0DTC2); assay: protein/peptide microarray, Anti-Hu IgG control alone, replicate 2, spot S1_0.17
Human IgG (human) [20] = assay: protein/peptide microarray, sample [..]00761 10 ug/mL, replicate 1, positive-control spot Human IgG (signal of the anti-human IgG detection)
ACE2_Fc [21] = molecular target: ACE2_Fc (UniProt Q9BYF1); assay: protein/peptide microarray, sample [..]00761 10 ug/mL, replicate 1, positive-control spot ACE2_Fc_0.5 (signal of the anti-human IgG detection)
ACE2_Fc [22] = molecular target: ACE2_Fc (UniProt Q9BYF1); assay: protein/peptide microarray, sample [..]00761 10 ug/mL, replicate 2, positive-control spot ACE2_Fc_0.5 (signal of the anti-human IgG detection)
ACE2_Fc [23] = molecular target: ACE2_Fc (UniProt Q9BYF1); assay: protein/peptide microarray, Anti-Hu IgG control alone, replicate 1, spot ACE2_Fc_0.5
ACE2_Fc [24] = molecular target: ACE2_Fc (UniProt Q9BYF1); assay: protein/peptide microarray, sample [..]00761 10 ug/mL, replicate 1, positive-control spot ACE2_Fc_0.17 (signal of the anti-human IgG detection)
ACE2_Fc [25] = molecular target: ACE2_Fc (UniProt Q9BYF1); assay: protein/peptide microarray, Anti-Hu IgG control alone, replicate 2, spot ACE2_Fc_0.17
ACE2_Fc [26] = molecular target: ACE2_Fc (UniProt Q9BYF1); assay: protein/peptide microarray, Anti-Hu IgG control alone, replicate 2, spot ACE2_Fc_0.5
Human IgG (human) [27] = assay: protein/peptide microarray, sample [..]00761 10 ug/mL, replicate 2, positive-control spot Human IgG (signal of the anti-human IgG detection)
ACE2_Fc [28] = molecular target: ACE2_Fc (UniProt Q9BYF1); assay: protein/peptide microarray, Anti-Hu IgG control alone, replicate 1, spot ACE2_Fc_0.17
[29] = molecular target: SARS-CoV-2 spike (S) protein (SARS-CoV-2) (UniProt P0DTC2); assay: cell-based or functional assay

In the case of secondary antibody (Anti-Human IgG), the F532 [1] is reported as 138, the F635 [1] is reported as 65500 and the Z-Score [1] is reported as 8.89. The F532 [2] was 197, the F635 [2] was 65500 and the Z-Score [2] was 8.93. It also gave an F532 [3] of 234, an F635 [3] of 65500 and a Z-Score [3] of 7.52. The F532 [4] was 179, the F635 [4] was 65500 and the Z-Score [4] was 8.89. For the same substance, the F532 [5] was 164, the F635 [5] was 65500 and the Z-Score [5] was 7.97. For the same substance, the F532 [6] was 219, the F635 [6] was 65500 and the Z-Score [6] was 8.93. For the same substance, the F532 [7] was 198, the F635 [7] was 65500 and the Z-Score [7] was 7.52. The F532 [8] was 151, the F635 [8] was 60200 and the Z-Score [8] was 7.32. For the same substance, the F532 [9] was 212, the F635 [9] was 65500 and the Z-Score [9] was 7.52. For the same substance, the F532 [10] was 167, the F635 [10] was 65500 and the Z-Score [10] was 7.96. For the same substance, the F532 [11] was 160, the F635 [11] was 65500 and the Z-Score [11] was 8.89. For the same substance, the F532 [12] was 192, the F635 [12] was 65500 and the Z-Score [12] was 8.93.

With Anti-Hu IgG (Control) (antibody) the F635 (S1 (SARS-CoV-2) [13]) was 1560, the Z-Score (S1 (SARS-CoV-2) [13]) was 0.1 and the F635 (Human IgG (human) [14]) was 65500. For the same substance, the Z-Score (Human IgG (human) [14]) was 9.27, the F635 (Human IgG (human) [15]) was 65500 and the Z-Score (Human IgG (human) [15]) was 9.27. The F635 (ACE2_Fc [16]) was 65500, the Z-Score (ACE2_Fc [16]) was 7.67 and the F635 (S1 (SARS-CoV-2) [17]) was 1230. For the same substance, the Z-Score (S1 (SARS-CoV-2) [17]) was 0.06, the F635 (S1 (SARS-CoV-2) [18]) was 1410 and the Z-Score (S1 (SARS-CoV-2) [18]) was 0.08. The F635 (S1 (SARS-CoV-2) [19]) was 753, the Z-Score (S1 (SARS-CoV-2) [19]) was -0.01 and the F635 (Human IgG (human) [20]) was 65500. The Z-Score (Human IgG (human) [20]) was 7.28, the F635 (ACE2_Fc [21]) was 65500 and the Z-Score (ACE2_Fc [21]) was 7.28. For the same substance, the F635 (ACE2_Fc [22]) was 65500, the Z-Score (ACE2_Fc [22]) was 7.67 and the F635 (ACE2_Fc [23]) was 65500. For the same substance, the Z-Score (ACE2_Fc [23]) was 9.27, the F635 (ACE2_Fc [24]) was 65500 and the Z-Score (ACE2_Fc [24]) was 7.28. The F635 (ACE2_Fc [25]) was 65500, the Z-Score (ACE2_Fc [25]) was 9.27 and the F635 (ACE2_Fc [26]) was 65500. For the same substance, the Z-Score (ACE2_Fc [26]) was 9.27, the F635 (Human IgG (human) [27]) was 65500 and the Z-Score (Human IgG (human) [27]) was 7.67. For the same substance, the F635 (ACE2_Fc [28]) was 65500 and the Z-Score (ACE2_Fc [28]) was 9.27.

In the case of REGN10933 (antibody), the IC50, SARS-CoV-2 pseudovirus neutralization assay [29] is reported as 0.0841 µg/mL.

Reference: US20230331825A1
